The record followed here is patent publication US20220064286A1 (Genentech, published 2022).

Assay [1] addresses T1, human TIGIT protein (human, UniProt Q495A1 22-141, limits assumed).
T1 construct: Recombinant protein (Genentech) used in ELISA screening and as SPR analyte; also called TIGIT antigen
T1 sequence: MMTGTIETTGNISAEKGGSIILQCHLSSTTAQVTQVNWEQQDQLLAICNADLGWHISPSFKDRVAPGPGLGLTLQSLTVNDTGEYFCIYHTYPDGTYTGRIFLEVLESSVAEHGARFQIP
As to the kind of experiment: SPR, captured mAb. How it is done:
(§1) Briefly, a series S CM5 biosensor chip was activated with N-ethyl-N′-(3-dimethylaminopropyl)-carbodiimide hydrochloride (EDC) and N-hydroxysuccinimide (NHS) reagents according to the supplier's (GE Healthcare Biosciences, Piscataway, N.J.) instructions, and a human antibody capture kit was applied to couple goat anti-human Fc IgGs in order to achieve approximately 10,000 response units (RU) on each flow cell, followed by blocking un-reacted groups with 1M ethanolamine.
(§2) (flow rate: 30 μl/min) with no regeneration between injections. The sensorgrams were recorded and evaluated by BIAcore™ T200 Evaluation Software (version 2.0) after subtraction of reference cell signal. Association rates (kₒₙ) and dissociation rates (koff) were calculated using a simple one-to-one Langmuir binding model. The equilibrium dissociation constant (KD) was calculated as the ratio koff/kₒₙ.
(§3) The first humanized versions, h6B2, L1H1, h10A5.L1H1, h7E7, L1H1, and h15C8.L1H1, which contain both rat CDRs and framework residues at Vernier positions, and the fully humanized versions, h6B2.L2H5, h10A5.L4H4, h7E7.L5H9, and h15C8.L5H9, which contain only rat CDRs were subject to BIAcore affinity measurement by comparison with original rat antibodies, rat6B2, rat10A5, rat7E7 and rat 15C8. For binding affinity determinations of TIGIT antibodies against human TIGIT, cynomolgus monkey TIGIT and human alanine-scanned TIGIT mutants by single-cycle kinetics, Surface Plasmon Resonance (SRP) measurement with a BIACORE™-T200 instrument was used, as described above.

Assay [2] has as its target T2, cynomolgus monkey (cyno) TIGIT protein (cynomolgus monkey, UniProt A0A7N9I9V4 89-209). Briefly: SPR, captured mAb. How it is done: as §1, §2, §3
In general terms: Surface plasmon resonance follows binding to a sensor surface in real time, without labels.

For assay [3], the target named is T1, human TIGIT protein. Briefly: SPR, monovalent affinity.
Assay [4] deals with T2, cynomolgus monkey (cyno) TIGIT protein. Briefly: SPR, monovalent affinity.

The Kd is the constant that tells how readily two partners part at equilibrium. Usually koff stands for a measure of how fast the partners let go of each other. A word on the kon: it is a measure of how fast the partners come together.

T2 sequence (A0A7N9I9V4 entry or part of it): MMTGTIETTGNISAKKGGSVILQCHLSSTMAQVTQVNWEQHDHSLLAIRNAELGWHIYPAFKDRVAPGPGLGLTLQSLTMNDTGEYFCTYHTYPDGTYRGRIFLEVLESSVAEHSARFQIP

B1: h6B2.L1H1 (antibody, V domains shown)
VH: EVTLKESGPALVKPTQTLTLTCTFSGFSLSTYGMGVSWIRQPPGKALEWLASIWWNGNTYYNPSLKSRLTVTKDASKNQAVLTMTNMDPVDTATYYCAHTGGAVITWFAYWGQGTLVTVSS
VL: DIQMTQSPSSLSASVGDRVTITCKASQSVGKNIAWYQQKPGKSPKLLIYYASNRYTGVPSRFSGSGSGTDFTFTISSLQPEDIATYYCQHIYNSPYPFGQGTKVEIK
notes: Humanized; FR/HVR pieces in order; also called h1.6B2.L1H1
Turning to B1, the Kd with human TIGIT protein [1] was determined as 0.54 nM; in assay [2] it was 0.96 nM; in the assay with human TIGIT protein [3] it was 0.54 nM; in assay [4], 0.96 nM. For the same molecule, the figures for the koff (with human TIGIT protein [1]; in assay [2]) were 0.00253 s⁻¹ and 0.00118 s⁻¹, respectively. Besides, the kon with human TIGIT protein [1] stood at 4.67e+06 M⁻¹ s⁻¹; in assay [2], 1.23e+06 M⁻¹ s⁻¹.

B2: h10A5.L4H4 (antibody, V domains shown)
VH: EVTLKESGPALVKPTQTLTLTCTFSGFSLTTYGMGVSWIRQPPGKALEWLASIWWNGNTYYNPSLRSRLTITKDTSKNQVVLTMTNMDPVDTATYYCAHTGGAVITWFAYWGQGTLVTVSS
VL: EIVMTQSPATLSVSPGERATLSCKASQSVGKNIAWYQQKPGQAPRLLIYYASNRYTGIPARFSGSGSGTEFTLTISSLQSEDFAVYYCQHIYNSPYPFGQGTKVEIK
notes: Fully humanized version; FR/HVR pieces in order
In the assay with human TIGIT protein [1], B2 returned a Kd of 0.44 nM, a koff of 0.00227 s⁻¹ and a kon of 5.21e+06 M⁻¹ s⁻¹. In assay [2], this molecule returned a Kd of 0.85 nM, a koff of 0.00129 s⁻¹ and a kon of 1.52e+06 M⁻¹ s⁻¹.

B3: h15C8.L1H1 (antibody, V domains shown)
VH: EVQLVQSGAEVKKPGASVKVSCKASGYTFTEHSIYWLRQAPGQRLEIIGRIDPKNGRTYFVDKFKNRATLTTDTSASTAYMELSSLRSEDTAVYFCARIDGFYFDFWGQGTLVTVSS
VL: DIQLTQSPSFLSASVGDRVTITCKGSQNVNKYLVWYQQKPGKAPKLLIYSTDNLQSGIPSRFSGSGSGTEYTLTISSLQPEDFATYFCYQYNNGFTFGQGTKVEIK
notes: First humanized version; FR/HVR pieces in order; also called h1.15C8.L1H1
Take B3: the Kd is 0.39 nM in the assay with human TIGIT protein [1], 0.94 nM in assay [2], 0.58 nM in the assay with human TIGIT protein [3] and 1.39 nM in assay [4]. The koff with human TIGIT protein [1] stood at 0.000357 s⁻¹; in assay [2], 0.000464 s⁻¹. In addition, the kon in the assay with human TIGIT protein [1] came to 922000 M⁻¹ s⁻¹; in assay [2], 493000 M⁻¹ s⁻¹.

B4: h15C8.L5aH9a (antibody, V domains shown)
VH: EVQLVQSGAEVKKPGASVKVSCKASGYTFTEHSIYWLRQAPGQRLEIMGRIDPKNGRTYFVDKFKNRATITTDTSASTAYMELSSLRSEDTAVYYCARIDGFYFDFWGQGTLVTVSS
VL: DIQLTQSPSFLSASVGDRVTITCKGSQNVNKYLVWYQQKPGKAPKLLIYSTDNLQSGVPSRFSGSGSGTEYTLTISSLQPEDFATYYCYQYNNGFTFGQGTKVEIK
notes: Final humanized 15C8; keeps rat VH I47, L37, A67, T71 and VL Y71; FR/HVR pieces
As for B4, in the assay with human TIGIT protein [1], the Kd amounted to 0.38 nM, the koff worked out at 0.000421 s⁻¹ and the kon came to 1.12e+06 M⁻¹ s⁻¹. In assay [2], this molecule yielded a Kd of 1.03 nM, a koff of 0.000613 s⁻¹ and a kon of 596000 M⁻¹ s⁻¹.

B5: h15C8.L5H1 (antibody, V domains shown)
VH: EVQLVQSGAEVKKPGASVKVSCKASGYTFTEHSIYWLRQAPGQRLEIIGRIDPKNGRTYFVDKFKNRATLTTDTSASTAYMELSSLRSEDTAVYFCARIDGFYFDFWGQGTLVTVSS
VL: DIQLTQSPSFLSASVGDRVTITCKGSQNVNKYLVWYQQKPGKAPKLLIYSTDNLQSGVPSRFSGSGSGTEFTLTISSLQPEDFATYYCYQYNNGFTFGQGTKVEIK
notes: VL: I58V, Y71F, F87Y against h15C8.L1H1; FR/HVR pieces
Turning to B5, in the assay with human TIGIT protein [1], the Kd came out at 0.83 nM, the koff was found to be 0.000562 s⁻¹ and the kon turned out to be 674000 M⁻¹ s⁻¹. In assay [2], this molecule had a Kd of 2.68 nM, a koff of 0.000752 s⁻¹ and a kon of 281000 M⁻¹ s⁻¹.

B6: h15C8.L4H1 (antibody, V domains shown)
VH: EVQLVQSGAEVKKPGASVKVSCKASGYTFTEHSIYWLRQAPGQRLEIIGRIDPKNGRTYFVDKFKNRATLTTDTSASTAYMELSSLRSEDTAVYFCARIDGFYFDFWGQGTLVTVSS
VL: DIQLTQSPSFLSASVGDRVTITCKGSQNVNKYLVWYQQKPGKAPKLLIYSTDNLQSGIPSRFSGSGSGTEYTLTISSLQPEDFATYYCYQYNNGFTFGQGTKVEIK
notes: VL: F87Y against h15C8.L1H1; FR/HVR pieces
In the assay with human TIGIT protein [1], B6 returned a Kd of 0.64 nM, a koff of 0.000611 s⁻¹ and a kon of 955000 M⁻¹ s⁻¹. In assay [2], this molecule showed a Kd of 1.15 nM, a koff of 0.000559 s⁻¹ and a kon of 485000 M⁻¹ s⁻¹.

B7: h15C8.L2H1 (antibody, V domains shown)
VH: EVQLVQSGAEVKKPGASVKVSCKASGYTFTEHSIYWLRQAPGQRLEIIGRIDPKNGRTYFVDKFKNRATLTTDTSASTAYMELSSLRSEDTAVYFCARIDGFYFDFWGQGTLVTVSS
VL: DIQLTQSPSFLSASVGDRVTITCKGSQNVNKYLVWYQQKPGKAPKLLIYSTDNLQSGVPSRFSGSGSGTEYTLTISSLQPEDFATYFCYQYNNGFTFGQGTKVEIK
notes: VL: I58V against h15C8.L1H1; FR/HVR pieces
In the assay with human TIGIT protein [1], B7 had a Kd of 0.66 nM, a koff of 0.000506 s⁻¹ and a kon of 771000 M⁻¹ s⁻¹. In assay [2], this molecule displayed a Kd of 1 nM, a koff of 0.000502 s⁻¹ and a kon of 502000 M⁻¹ s⁻¹.

B8: h15C8.L1H8 (antibody, V domains shown)
VH: EVQLVQSGAEVKKPGASVKVSCKASGYTFTEHSIYWLRQAPGQRLEIIGRIDPKNGRTYFVDKFKNRATLTTDTSASTAYMELSSLRSEDTAVYYCARIDGFYFDFWGQGTLVTVSS
VL: DIQLTQSPSFLSASVGDRVTITCKGSQNVNKYLVWYQQKPGKAPKLLIYSTDNLQSGIPSRFSGSGSGTEYTLTISSLQPEDFATYFCYQYNNGFTFGQGTKVEIK
notes: VH: F91Y against h15C8.L1H1; FR/HVR pieces
In the assay with human TIGIT protein [1], B8 gave a Kd of 0.61 nM, an off-rate (koff) of 0.000381 s⁻¹ and a kon of 620000 M⁻¹ s⁻¹. In assay [2], this molecule registered a Kd of 0.41 nM, a koff of 0.000119 s⁻¹ and a kon of 291000 M⁻¹ s⁻¹.

B9: h15C8.L1H6 (antibody, V domains shown)
VH: EVQLVQSGAEVKKPGASVKVSCKASGYTFTEHSIYWLRQAPGQRLEIIGRIDPKNGRTYFVDKFKNRATITTDTSASTAYMELSSLRSEDTAVYFCARIDGFYFDFWGQGTLVTVSS
VL: DIQLTQSPSFLSASVGDRVTITCKGSQNVNKYLVWYQQKPGKAPKLLIYSTDNLQSGIPSRFSGSGSGTEYTLTISSLQPEDFATYFCYQYNNGFTFGQGTKVEIK
notes: VH: L69I (printed L691) against h15C8.L1H1; FR/HVR pieces
In the case of B9, in the assay with human TIGIT protein [1], the Kd was 0.55 nM, the koff was found to be 0.000756 s⁻¹ and the kon is 1.38e+06 M⁻¹ s⁻¹. In assay [2], this molecule displayed a Kd of 0.84 nM, a koff of 0.000556 s⁻¹ and a kon of 663000 M⁻¹ s⁻¹.

B10: h15C8.L3H1 (antibody, V domains shown)
VH: EVQLVQSGAEVKKPGASVKVSCKASGYTFTEHSIYWLRQAPGQRLEIIGRIDPKNGRTYFVDKFKNRATLTTDTSASTAYMELSSLRSEDTAVYFCARIDGFYFDFWGQGTLVTVSS
VL: DIQLTQSPSFLSASVGDRVTITCKGSQNVNKYLVWYQQKPGKAPKLLIYSTDNLQSGIPSRFSGSGSGTEFTLTISSLQPEDFATYFCYQYNNGFTFGQGTKVEIK
notes: VL: Y71F against h15C8.L1H1; FR/HVR pieces
In the assay with human TIGIT protein [1], B10 gave a Kd of 0.84 nM, a koff of 0.000533 s⁻¹ and a kon of 631000 M⁻¹ s⁻¹. In assay [2], this molecule returned a Kd of 1.75 nM, a koff of 0.000588 s⁻¹ and a kon of 336000 M⁻¹ s⁻¹.

B11: h15C8.L1H7 (antibody, V domains shown)
VH: EVQLVQSGAEVKKPGASVKVSCKASGYTFTEHSIYWLRQAPGQRLEIIGRIDPKNGRTYFVDKFKNRATLTRDTSASTAYMELSSLRSEDTAVYFCARIDGFYFDFWGQGTLVTVSS
VL: DIQLTQSPSFLSASVGDRVTITCKGSQNVNKYLVWYQQKPGKAPKLLIYSTDNLQSGIPSRFSGSGSGTEYTLTISSLQPEDFATYFCYQYNNGFTFGQGTKVEIK
notes: VH: T71R against h15C8.L1H1; FR/HVR pieces
In the assay with human TIGIT protein [1], B11 gave a Kd of 0.98 nM, a koff of 0.000597 s⁻¹ and an on-rate constant (kon) of 610000 M⁻¹ s⁻¹. In assay [2], this molecule came in with a Kd of 0.94 nM, a koff of 0.000206 s⁻¹ and a kon of 219000 M⁻¹ s⁻¹.

B12: 4.1A4.Q1E.C96 (antibody, V domains shown)
VH: EVQLVQSGSELKKPGASVKVSCKASGYTLTNYPMNWVRQAPGRGLEWMGWINTNTGSPAYAQDFTERFVFSLDTSVTTAYLQISSLKAEDTAVYYCARTAITSVYHFDYWGQGTLVTVSS
VL: DIQLTQSPSFLSASVGDRVTITCRASQGISSYLAWYQQKPGKAPRVLIYGATTLQSGVPSRFSGSESGTEFTLTISSLQPEDLATYYCQKLNSHPCSFGQGTKVEIK
notes: built from its name as 4.1A4 with Q1E in VH and C96 kept in VL
Consider B12, for which the Kd with human TIGIT protein [3] was determined as 3.6 nM; in assay [4], 2.4 nM.

B13: 7.4A3.Q1E.C96 (antibody, V domains shown)
VH: EVQLVQSGSDLKKPGASVRVSCKASGYTFTSYPMNWVRQAPGHGLEWMGWINTNTGNPTYVQGFTGRFVFSLDTSVNTAYLQISSLKAEDTAVYFCARTGGHTYDSYAFDVWGQGTMVTVSS
VL: DIQLTQSPTFLSASVGDRVTITCRASQVISSSLAWYQQNPGKAPKLLIYAASTLQSGVPSRFSGSGSGTEFTLTISSLQPEDFVTYYCQHLHGYPCNFGQGTKVEIK
notes: built from its name as 7.4A3 with Q1E in VH and C96 kept in VL
In the case of B13, the Kd in the assay with human TIGIT protein [3] came out at 3.45 nM; in assay [4], 2.09 nM.
